These results are taken from paper PMC12808120.

In data set [1] the target is IGF2BP3 (recombinant) (UniProt O00425). Description: filter binding. The conditions noted are these: FBA/EMSA: 10 mM Tris-Cl pH 7.5, 50 mM KCl, 1 mM EDTA, 0.05% Triton X, 5% glycerol, 1 mM DTT, 37 C 20 min, pull-down: lysate mixed 1:1 with 2x TENT (100 mM Tris …). Background: A gel shift assay detects complexes by their altered migration in electrophoresis.
For data set [2] the target is unchanged. Briefly: EMSA. The settings on record: no binding up to 100 nM; Kd >>100 nM; FBA/EMSA: 10 mM Tris-Cl pH 7.5, 50 mM KCl, 1 mM EDTA, 0.05% Triton X, 5% glycerol, 1 mM DTT, 37 C 20 min; pull-down: lysate mixed 1:1 with 2x TENT (100 mM Tris …).

Sequence of IGF2BP3 (recombinant) (O00425 whole entry): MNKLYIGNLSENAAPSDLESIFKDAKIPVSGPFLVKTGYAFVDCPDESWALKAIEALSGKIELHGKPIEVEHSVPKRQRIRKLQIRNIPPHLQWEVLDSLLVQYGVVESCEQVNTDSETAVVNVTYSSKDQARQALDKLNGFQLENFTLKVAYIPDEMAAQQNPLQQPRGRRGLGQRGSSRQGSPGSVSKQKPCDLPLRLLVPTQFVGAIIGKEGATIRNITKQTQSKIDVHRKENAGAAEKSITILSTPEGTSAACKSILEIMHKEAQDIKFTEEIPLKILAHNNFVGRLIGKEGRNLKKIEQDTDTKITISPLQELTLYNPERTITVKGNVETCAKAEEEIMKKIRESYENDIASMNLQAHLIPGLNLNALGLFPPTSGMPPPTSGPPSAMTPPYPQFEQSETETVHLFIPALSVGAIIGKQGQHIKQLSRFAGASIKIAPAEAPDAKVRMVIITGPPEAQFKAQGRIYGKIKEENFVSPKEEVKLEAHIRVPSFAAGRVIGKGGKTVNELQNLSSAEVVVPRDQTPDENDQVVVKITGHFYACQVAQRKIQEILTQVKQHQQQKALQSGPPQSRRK

For the substance “FMR1-5'UTR RNA with 16 CGG repeats (FMR1-16CGG)”, the Kd in data set [1] was found to be 3.15 nM.
Regarding “UAAUAAUAAUAAUAAUAAUAAUAAUAAUAAUAAUAAUAAUAAUAAUAAUAAUAAUAAUAA [(UAA)20 RNA]”, the Kd in data set [2] is above 100 nM; in data set [1] (no binding up to 100 nM, Kd >>100 nM), above 100 nM.

In general, Kd refers to the free concentration of one partner at which half of the binding sites on the other are occupied at equilibrium, for simple one-to-one binding.
